From IntAct's records for PubMed 28891236

B1: Adhesion G protein-coupled receptor B2 (Homo sapiens), O60241 (parent)
chain: MENTGWMGKGHRMTPACPLLLSVILSLRLATAFDPAPSACSALASGVLYGAFSLQDLFPTIASGCSWTLENPDPTKYSLYLRFNRQEQVCAHFAPRLLPLDHYLVNFTCLRPSPEEAVAQAESEVGRPEEEEAEAAAGLELCSGSGPFTFLHFDKNFVQLCLSAEPSEAPRLLAPAALAFRFVEVLLINNNNSSQFTCGVLCRWSEECGRAAGRACGFAQPGCSCPGEAGAGSTTTTSPGPPAAHTLSNALVPGGPAPPAEADLHSGSSNDLFTTEMRYGEEPEEEPKVKTQWPRSADEPGLYMAQTGDPAAEEWSPWSVCSLTCGQGLQVRTRSCVSSPYGTLCSGPLRETRPCNNSATCPVHGVWEEWGSWSLCSRSCGRGSRSRMRTCVPPQHGGKACEGPELQTKLCSMAACPVEGQWLEWGPWGPCSTSCANGTQQRSRKCSVAGPAWATCTGALTDTRECSNLECPATDSKWGPWNAWSLCSKTCDTGWQRRFRMCQATGTQGYPCEGTGEEVKPCSEKRCPAFHEMCRDEYVMLMTWKKAAAGEIIYNKCPPNASGSASRRCLLSAQGVAYWGLPSFARCISHEYRYLYLSLREHLAKGQRMLAGEGMSQVVRSLQELLARRTYYSGDLLFSVDILRNVTDTFKRATYVPSADDVQRFFQVVSFMVDAENKEKWDDAQQVSPGSVHLLRVVEDFIHLVGDALKAFQSSLIVTDNLVISIQREPVSAVSSDITFPMRGRRGMKDWVRHSEDRLFLPKEVLSLSSPGKPATSGAAGSPGRGRGPGTVPPGPGHSHQRLLPADPDESSYFVIGAVLYRTLGLILPPPRPPLAVTSRVMTVTVRPPTQPPAEPLITVELSYIINGTTDPHCASWDYSRADASSGDWDTENCQTLETQAAHTRCQCQHLSTFAVLAQPPKDLTLELAGSPSVPLVIGCAVSCMALLTLLAIYAAFWRFIKSERSIILLNFCLSILASNILILVGQSRVLSKGVCTMTAAFLHFFFLSSFCWVLTEAWQSYLAVIGRMRTRLVRKRFLCLGWGLPALVVAVSVGFTRTKGYGTSSYCWLSLEGGLLYAFVGPAAVIVLVNMLIGIIVFNKLMARDGISDKSKKQRAGSERCPWASLLLPCSACGAVPSPLLSSASARNAMASLWSSCVVLPLLALTWMSAVLAMTDRRSVLFQALFAVFNSAQGFVITAVHCFLRREVQDVVKCQMGVCRADESEDSPDSCKNGQLQILSDFEKDVDLACQTVLFKEVNTCNPSTITGTLSRLSLDEDEEPKSCLVGPEGSLSFSPLPGNILVPMAASPGLGEPPPPQEANPVYMCGEGGLRQLDLTWLRPTEPGSEGDYMVLPRRTLSLQPGGGGGGGEDAPRARPEGTPRRAAKTVAHTEGYPSFLSVDHSGLGLGPAYGSLQNPYGMTFQPPPPTPSARQVPEPGERSRTMPRTVPGSTMKMGSLERKKLRYSDLDFEKVMHTRKRHSELYHELNQKFHTFDRYRSQSTAKREKRWSVSSGGAAERSVCTDKPSPGERPSLSQHRRHQSWSTFKSMTLGSLPPKPRERLTLHRAAAWEPTEPPDGDFQTEV

Variants of: B1
Conditions: with gnaz_human GNAZ
R1465W was tested, and the “effect of a mutation on the interaction” value was “with no effect”.

Variants of: B1
Conditions: with gnai1_human GNAI1, P63096
Sequence of gnai1_human GNAI1, P63096 (P63096 whole entry): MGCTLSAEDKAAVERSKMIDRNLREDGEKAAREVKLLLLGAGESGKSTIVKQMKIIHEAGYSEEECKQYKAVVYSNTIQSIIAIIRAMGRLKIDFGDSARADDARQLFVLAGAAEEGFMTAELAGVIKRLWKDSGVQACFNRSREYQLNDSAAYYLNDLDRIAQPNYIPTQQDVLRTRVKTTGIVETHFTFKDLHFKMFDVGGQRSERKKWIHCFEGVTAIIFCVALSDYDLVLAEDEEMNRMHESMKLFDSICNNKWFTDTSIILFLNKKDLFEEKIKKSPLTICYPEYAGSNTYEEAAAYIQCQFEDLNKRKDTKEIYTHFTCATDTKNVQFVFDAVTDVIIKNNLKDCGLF
With R1465W the “effect of a mutation on the interaction” value was “causing an interaction”.

Variants of: B1
Conditions: with arrb2_rat Arrb2, P29067
Sequence of arrb2_rat Arrb2, P29067 (P29067 whole entry): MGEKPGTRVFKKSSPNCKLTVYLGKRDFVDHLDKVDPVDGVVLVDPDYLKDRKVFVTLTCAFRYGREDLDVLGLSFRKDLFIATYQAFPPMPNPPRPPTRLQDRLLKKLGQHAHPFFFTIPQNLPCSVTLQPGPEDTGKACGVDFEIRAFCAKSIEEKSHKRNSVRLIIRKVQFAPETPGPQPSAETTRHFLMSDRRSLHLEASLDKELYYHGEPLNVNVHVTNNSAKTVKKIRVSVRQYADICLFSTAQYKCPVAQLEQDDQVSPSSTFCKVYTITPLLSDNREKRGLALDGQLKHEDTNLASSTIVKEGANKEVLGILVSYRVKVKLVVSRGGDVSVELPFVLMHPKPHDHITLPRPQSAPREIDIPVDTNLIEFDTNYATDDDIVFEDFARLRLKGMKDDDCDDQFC
For R1465W, the “effect of a mutation on the interaction” value was “with no effect”.

Variants of: B1
Conditions: with sh3g2_human SH3GL2, Q99962
Sequence of sh3g2_human SH3GL2, Q99962 (Q99962 whole entry): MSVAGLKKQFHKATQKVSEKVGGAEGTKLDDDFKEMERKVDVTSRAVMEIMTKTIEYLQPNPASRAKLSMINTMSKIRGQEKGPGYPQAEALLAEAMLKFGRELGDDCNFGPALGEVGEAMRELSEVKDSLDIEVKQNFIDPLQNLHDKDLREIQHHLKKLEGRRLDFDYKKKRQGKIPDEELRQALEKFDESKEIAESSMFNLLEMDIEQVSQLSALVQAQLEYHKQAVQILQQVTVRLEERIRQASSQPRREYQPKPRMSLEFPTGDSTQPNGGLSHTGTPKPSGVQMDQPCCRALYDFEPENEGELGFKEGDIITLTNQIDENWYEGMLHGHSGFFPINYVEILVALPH
For R1465W, the “effect of a mutation on the interaction” value was “disrupting interaction strength”.
